Publication PMC12092789

Target: RAD51 (UniProt Q06609)
Assay: co-immunoprecipitation, Western blot
Conditions: reference: wild-type NPM1, cisplatin; sites S260

## nucleophosmin 1 (NPM1) (from UniProt P06748) NPM1 S260A, cisplatin
  binding against the reference: stronger
